Reference: the supplement of paper PMC10567573
± gives the standard deviation.

Experiment: protein stability index of a GFP-peptide fusion (GPS, HEK-293T) (PSI 1-6); higher = more stable
Settings: c terminus: a fixed tail appended
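Further: 24-mer peptide tiles fused after GFP, lentivirally expressed, FACS-sorted into six equal bins by GFP/DsRed ratio, decoded by Illumina sequencing, PSI is the read-weighted mean bin number.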

Sequence | protein stability index (treatment: DMSO) | protein stability index (treatment: MLN4924 1 uM, 8 h)
CINRFQQVESRWGYSGTSDRIRFT [BTBD1] | 1.8 ± 0.12 | 2.07 ± 0.31
TFSLKTVLMIAIQLISRMEYVHSK [CSNK1G3] | 3.5 ± 0.67 | 3.16 ± 0.46
ECVWNGSDSVIMTGSYNNFFRMFD [PPP2R2B] | 2.23 ± 0.34 | 2.27 ± 0.39
ETLLGDPKRRMRYFDPLRNEYFFD [KCNA3] | 2.58 ± 0.37 | 2.79 ± 0.29
EPYGHLNPKWTKWLQKLCCPCCFG [PI4K2A] | 3.33 ± 0.33 | 3.37 ± 0.21
LDKQMSRDEHRARAMKIPFTNDKI [NFE2L1] | 4.13 ± 0.32 | 4.28 ± 0.25
QRFRLDNLLNMAYGVKSPLSLIAR [ELAVL3] | 2.05 ± 0.14 | 2.19 ± 0.18
VLNDRFQRQKYLSLQQMQELSNIL [NANOGP8] | 2.52 ± 0.11 | 2.64 ± 0.32
FRYLQGMLEAGEGGDWPGPGGPRN [PDLIM4] | 2.76 ± 0.12 | 3.64 ± 0.49
IVEKRVLAHLAPLFDNPKLDKELR [INTS3] | 2.13 ± 0.2 | 2.13 ± 0.37
LASQNKPLWQCYLGRFNDINVPIR [PDS5B] | 2.03 ± 0.73 | 2.72 ± 0.058
VCGGAQRPGHLPGLLLGSHGLLGS [CDC25B] | 1.9 ± 0.96 | 3.24 ± 1.6
ESSVPSTVGCSSQHTPDQANSDRA [PLEKHN1] | 5.42 ± 0.2 | 5.61 ± 0.16
RSETFLEVWGNALLRPPVAAFVRA [DNAAF3] | 2.22 ± 0.21 | 2.34 ± 0.13
FSDSSMDHFQKFLPTVGGQLGTAG [MYOZ1] | 2.78 ± 0.31 | 3.23 ± 0.34
STCDTLGMADVGTVCDPARSCAIV [ADAMTS4] | 3.92 ± 0.34 | 3.69 ± 0.083
KQLNCVEISALNGNRINVPMVRKR [DLC1] | 4.12 ± 0.24 | 4.07 ± 0.3

Sequence | protein stability index (treatment: DMSO) | protein stability index (treatment: MLN4924 1 uM, 8 h)
STRLTRIHLREDLVQDQDLEAIRK [ZER1] | 4.67 ± 0.079 | 4.7 ± 0.14
FLPGYVGGIQEGAVTPAGVVNKYQ [DHCR7] | 3.42 ± 0.21 | 3.45 ± 0.24
RLSGAGPAEEAGPEGGLEEPDALD [FOXJ1] | 5.51 ± 0.31 | 5.59 ± 0.2
RQGPKEPPRKSGSFHSSGEKQKQP [PBXIP1] | 4.86 ± 0.27 | 5.17 ± 0.15
DVKRLGKQNARFLTSMRRLSSIKR [STX11] | 2.9 ± 0.35 | 2.98 ± 0.42
CPPLHIPGSMSEVQELCKQLHAKI [TNNI2] | 2.88 ± 0.3 | 2.93 ± 0.14
FGWETKIKAWMDRYEEANNNQYSE [KMT2E] | 3.1 ± 0.18 | 3.58 ± 0.13
PSRGGNQLPRPPIVGGNKGRSGPL [WAS] | 4.6 ± 0.07 | 4.73 ± 0.22
GDVPPSMSGSCAVCVDRVLYLFGG [KLHDC2] | 2.74 ± 0.79 | 2.47 ± 0.55
PEKHQVPEKLIWGDQDPLSKIPFK [WDR88] | 3.72 ± 0.22 | 4.26 ± 0.38
EEAISVVMSGKMSVSKAQSIYGIP [LCOR] | 2.69 ± 0.17 | 2.53 ± 0.087
TWALYNLVSVYPDKYCPLLIKEGG [ZER1] | 2.62 ± 0.99 | 2.26 ± 0.34
GEGEPGQGEGPEAGDAEVCPTPAR [NOP53] | 5.71 ± 0.2 | 5.67 ± 0.13
QEYESIDPGQQFTWEHSNLEVNKP [PTPRD] | 4.94 ± 0.1 | 4.93 ± 0.069
KRDLLGALKYWKKAMNMRYSDRTN [FEM1C] | 1.95 ± 0.25 | 2.27 ± 0.33
LPLMDLCRRSVRLALGRERLGEIH [SPSB1] | 2.56 ± 0.28 | 2.42 ± 0.29
